Source: FireProtDB (doi:10.1016/j.jmb.2005.09.061)
Where “and” joins values, the source holds several entries; their conditions need not be identical. Identical values can stand only once.

B1: Alpha-lactalbumin, P00712 (parent)
chain: MMSFVSLLLVGILFHATQAEQLTKCEVFQKLKDLKDYGGVSLPEWVCTAFHTSGYDTQAIVQNNDSTEYGLFQINNKIWCKDDQNPHSRNICNISCDKFLDDDLTDDIVCAKKILDKVGINYWLAHKALCSEKLDQWLCEKL

Variants of: B1
Conditions: Capra hircus; pH 7; Thermal; CD; sodium cacodylate 50 mM; NaCl 50 mM; reversible: Yes; structure 1HFY; whole UniProt chain shown

Variant | Tm | change of melting temperature, mutant - wild type (higher = more stable) | heat capacity change of unfolding [kcal/mol/K] | unfolding enthalpy (van 't Hoff)
MMSFVSLLLVGILFHATQAEQLTKCEVFQKLKDLKDYGGVSLPEWVCTAFHTSGYDAQAIVQNNDSTEYGLFQINNKIWCKDDQNPHSRNICNISCDKFLDDDLTDDIVCAKKILDKVGINYWLAHKALCSEKLDQWLCEKL [T57A] | 59 °C and 54.1 °C | -6.8 °C and -4.9 °C | 1.8 | 68.8 kcal/mol and 62.5 kcal/mol
